Assay: yeast display, Sf9 membrane polyspecificity reagent, FACS + sequencing; frameworks hold sequencing errors
Summary of the method: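 Galactose induction of a Saccharomyces cerevisiae BJ5465 synthetic nanobody display library ran 36–48 hours. The cells were then stained for 1 hour at 4 °C with 10% biotinylated, detergent-solubilized Sf9 membrane reagent, pulled down on streptavidin microbeads and FACS-sorted into low and high (top ~1%) gates on expression and reagent-binding fluorescence. Labels for polyreactivity follow the gate of origin.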

Sequence	polyreactivity (PSR sort gate)
QVQLVESGGRLVQAGGSLRLRCAASGSTIPYNAMGWYRQAPGKERELLAAITSGGSTNYADSVKGRFTISRDNAMNTVYLQMNSLKPEDTAVYYCNADSSGWFPFDYWGQGTQVTVSS	low polyreactivity
QVQLVESGGRLVQAGGSLRLSCAASGFIFDSYAMGWYRQAPGKERELVAAISWSGGRTYYADSVKGRFTISRDNAKNTVYLQMNSLKPEDTAVYYCNVRTKLSTSYDYWGQGTQVTVSS	high polyreactivity
QVQLVESGGRLVQAGGSLRLSCAASGFIFEWNAKGWYRQAPGKERELVASITFGGGNTYYADSVKGRFTISRDYAQNTDYLQMNSLKPEDTAVYYCAVDYGYWRDSIALGEFDYWGQGTQVTVSS	low polyreactivity
QVQLVESGGRLVQAGGSLRLSCAASGFTFPTYAMGWYRQAPGKERELVAAITRGGSTYYADSVKGRFTISRDNAKNTVYLQMNSLKPEDTAVYYCAADDPWYEEDYWGQGTQVTVSS	low polyreactivity
QVQLVESGGRLVQAGGSLRLSCAASGIIFSGYAMGRYRPAPGTVREFVAAIDSVTSTYYADSVKGRFTTSRDNANNTVYLQMISLKPEVTAVYYCNARSDCTWYTLDYWGQGTQVTVSS	high polyreactivity
QVQLVESGGRLVQAGGSLRLSCAASGIIFVSYMGWYIQAPGQERELVAAIRWSGGRTYYADSVKGRFTISRDNAKNTVYLQMTSLKPEDTAVYNCATAPYICAYSLPHHDSWGQGTQVTVSS	high polyreactivity
QVQLVESGGRLVQAGGSLRLSCAASGIIFYVYAMGWYRQAPGKERELVAAISSSGGSTYYADSVKGRFTISRDNAKNTVYLQMNSLKPEDSAVYYCAAVSSGYDDWGQGTQVTVTS	high polyreactivity
QVQLVESGGRLVQAGGSLRLSCAASGIIIRKYARGWYRPAPGKVRELVAAITTRGSRTYSADSVKGRFTISRDNAKNTVYLQMNSLKPEDTAVYYCAADRYTVRMDYWGQGTQVTVSS	high polyreactivity
QVQLVESGGRLVQAGGSLRLSCAASGITFYYYAMGWYRQAPGKERELVAAISSGGTRTYYADSVKGRFTISRDNAKNTVYLQMNSLKPEDTAVYYCAAPTYWHPTYDYWGQGTQVTVSS	high polyreactivity
QVQLVESGGRLVQAGGSLRLSCAASGRIFANYAMGWYRQAPGKERELVAAISRSGGSTSYADSVKGRFTISRDNAKNTVYLQMNSLKTEDTAVYYCAATRSRYQPVKYGYWGQGTQVTVTS	high polyreactivity
QVQLVESGGRLVQAGGSLRLSCAASGRIFAYYAMGWYRQAPGKERELVAAISRSGVSTYYADSVKGRFTISRDNAKNTVYLQMNSLKPEDTAVYYCAARWRSGFTSGDYWGQGTQVTVSS	low polyreactivity
QVQLVESGGRLVQAGGSLRLSCAASGRIFDGNAMGWYRQAPGKERELVAAISWTGGSTYYADSVKGRFTISRDNAKNTVYLQMNSLKPEDTAVYYCAADSGWWLDQWSWYDYWGQGTQVTVSS	low polyreactivity
QVQLVESGGRLVQAGGSLRLSCAASGRIFGRYAMGWYRQAPGKERELVAAISSSGGSTYYADSVKGRFTISRDNAKNTVYLQMNSLKPEDTAVYYCAAEIIKVAYRVAYYYWGQGTQVTVSS	high polyreactivity
QVQLVESGGRLVQAGGSLRLSCAASGRIFKSYAMGWDRQAPGKERELVAAISRSGGRTYYADSVKGRFTISRDTAKNTVYLQMICLKPEDTAVYFCAGTTIVAPYWGQGTQVTVST	low polyreactivity
QVQLVESGGRLVQAGGSLRLSCAASGRIFRGYAMGWYRQEPGKERELVAAISQSGSSTYYADSVKGRFTISRDNAKNTVYLQMNSLKPEDTAVYYSAVIYVKHFGYWGLGTQVTVSS	high polyreactivity
QVQLVESGGRLVQAGGSLRLSCAASGRIFSINVMGWYRHAPGKERELVAAISKRGGSTYYADSVKGRFTISRDNAKNTVYLQMNSLKPEDTAVFYCAARRHYTYGNGPSRGGQMDYWGQGTQVTVSS	high polyreactivity
QVQLVESGGRLVQAGGSLRLSCAASGRIFTYNAMGWYTQAPGKERELVAGITRRGGSTYYADSVKGRFTISRDNAKNTVYLQMNSLKPEDTAVYYCAATYPNARRYEYWGQGTQVTVSS	high polyreactivity
QVQLVESGGRLVQAGGSLRLSCAASGRIFVVNAMGWYRQAPGKERELVAAIDRSGGSTYYADSVKGRFTISRDNAKNTVYLQMNSLKPEDTAVYYCNTGRRYYSYRRDYWGQGTQVTVSS	high polyreactivity
QVQLVESGGRLVQAGGSLRLSCAASGRIIAYNAKGWYRQAPGKERELVDAISRSGGSTYYADSVKGRFTISRDNAKNTVYLQMNSLKPEDTAVYYCAASLKVPYATMNYWGQGTQVTVSS	high polyreactivity
QVQLVESGGRLVQAGGSLRLSCAASGRTFARNAMGWYRQAPGKERELVAAISWSGGSTYYADSVKGRFTISRDNAKNTVYLQMNSLKPEDTAVYYCAARICYYNYWGQGTQVTVSS	high polyreactivity
QVQLVESGGRLVQAGGSLRLSCAASGRTFGWYAMGWYRQAPGKERELVAAINRRVGRTYYADSVKGRFTISRDNAKNTVYLQMNSLIPEDTAVYYCAVKQGFYSRALKLYYWGQGTQVTVSS	high polyreactivity
QVQLVESGGRLVQAGGSLRLSCAASGRTFSNAIGWDRQAPGKEREEVADISSGGSTNYADSVKGRFTISRDNAKNTVYLQMNSLKPEDTAVYYCAAVSGSLYGYSDDYWGQGTQVTVSS	low polyreactivity

Sequence	polyreactivity (PSR sort gate)
QVQLVESGGRLVQAGGSLRLSCAASGRTFVYNAMGWYRQAPGKESELVAAISSGGGTNYADSVKGRFTISRDNAKNTVYLQMNSLKPEDTAVYYCAAGFDGSRHPGFDSWGQGTQVTVSS	low polyreactivity
QVQLVESGGRLVQAGGSLRLSCAASGSIFFLYAKGWYRQAPGKERELVAAISGGGGSTYYADSVKGRFTISRDIAKYTVYLLMNSLKPEDTAVYYCAALSKTRGGFWGQGTQVTVSS	high polyreactivity
QVQLVESGGRLVQAGGSLRLSCAASGSIFNAYAMGWYRQAPGKEREFVAVITSNGGITYYADSVKGRFTISRDNAKNTVYLQMNSLKPEDTAVYYCAAYEIYYEFDSWGQGTQVTVSS	low polyreactivity
QVQLVESGGRLVQAGGSLRLSCAASGSIFQYYARGWYRQAPGKVREFVSAITSDGSSTYYADSVKGRFTISRDNAKNTVYLQMKSLKPEDTAVYYCAAGWVGYRRPSMYYWGQVTQVTVSS	high polyreactivity
QVQLVESGGRLVQAGGSLRLSCAASGSTFDENAMGWYRQAPGKERELVAAISRRGVSTYYADSVKGRFTISRDNEKNTVYLQMNSVKPEDTAVYYCARRYGGVGMYYWGQGTQVTVSS	high polyreactivity
QVQLVESGGRLVQAGGSLRLSCAASGSTFGRYTMGWYRQAPGKERELVTAITSSGDSTYYADSVKGRFTISRDNAKNTVYLQMNSLKPEDTAVYDCAADYADLNDYWGQGTQVTVSS	low polyreactivity
QVQLVESGGRLVQAGGSLRLSCAASGSTFGWYAMAWYRPAPGKERELVAAIRSNGGSTYYADSVKGRFTISRDNAKNTVYLQMNSLKPEDTAVYYCAARGSPSKHHWYDYWGQGTQVTVSS	low polyreactivity
QVQLVESGGRLVQAGGSLRLSCAASGSTFTKYALGWYRPAPGKERELVAAISRSGGSTYYADSVKGRFSISRDNAKNTVYLQMNSLKPEDTAVYYCAARDSSRNYFGDGARDYWGQCTQVTVSS	high polyreactivity
QVQLVESGGRLVQAGGSLRLSCAASGSTFVQNAMGWYRQATGKERELVAAISKSGGRTYYADSVKGRFTISRDNAKNTVYLQMNSLKPEDTAVYYCAAVTVASPTRMDYWGQGTQVTVSS	high polyreactivity
QVQLVESGGRLVQAGGSLRLSCAASGSTFYRNAMGWYRQAPGKERELVASINNGGSTYYADSVKGRFTISRDNAKNTVYLQMNSLKPEDTAVYYCAATESWDYDYWGQGTQVTVSS	low polyreactivity
QVQLVESGGRLVQAGGSLRLSCAASGSTIAYNAMGWYIQAPGKERELVAANSKGGGSTYYADSVKGRFTISRDNAQNTVYLAMNSLKPAETAVYYCAAVSGYSTGGSRYRYNYWGQGTQVTVSS	high polyreactivity
QVQLVESGGRLVQAGGSLRLSCAASGSTITPNSMGWYRQAPGKERELVAAITTGGSTKYADSVKGRFTISRDNAKKTVYLQLTSLNPADTAVYYCNTDRGAYFYVIWPPWTYDWGQGTQVTVTS	low polyreactivity
QVQLVESGGRLVQAGGSLRLSCAASGSTLYAYAMGWYRPAPGKERELVAAIRTGGSTYYADSVNGRFTISRDNAKNTVYLQMNSLKPEDTAVYYCAADHGYQYGYWGQGTQVTVSS	low polyreactivity
QVQLVESGGRLVQAGGSLRLSCAASGYTYDRYAMGWYRQAPGKERQLVAAISSSGTSTYYADSVKGRFTISRDNEKNTVYLQMNSLKPEDTAVYYCAATRLKLKFAYWGQGTQVTVSS	high polyreactivity
QVQLVESGGRLVQAGGSLRLSCAPSGFIFGDNGIGGSRQSPGKEMELVAGINRRSGTYYADSVKGRFTISRDNAKNTVYLLMNSLKREDTAVYYCAARLDAYQSGRYYYWGQGTQVTLSS	high polyreactivity
QVQLVESGGRLVQAGGSLRLSCAPSGFMFADYMGWYRQAPGKERALVASISSTGSSTYADSVKGRFTITRDNAKNTVYLPMNSLKPEDTAVYDCAATGVWYSSNDYASEYDYWGQGTQVTVSS	high polyreactivity
QVQLVESGGRLVQAGGSLRLSCAPSGSIFWGYAMGWYRQAPGKERELVAVISRGGSTYYADSVKGRFTISRDNAKNTVYLKMNSLKPEDTAVYYCAASSSWFYSPEYDYWGQGTQVTVSS	low polyreactivity
QVQLVESGGRLVQAGGSLRLSCASSGRTFYPYVMGWYRQAPGKERELVAAISSGTSTYYADSVKGRFTISRDNAKNTVYLQMNSLKPEDTAVYYCAVRVYTYVLYDFWGQGTQVTVSS	high polyreactivity
QVQLVESGGRLVQAGGSLRLSCSASGLTFQYYAMGWYRQAPGKERELVATINSGGSTKYADSVKGRFTISRDNAKNTVYLQMNRLKPEDTAVYYCAADPYRRYRRPSRYGYWGQGTQVTVSS	high polyreactivity
QVQLVESGGRLVQAGGSLRLSGAASVLTFNFNAMGWYRQAPGKERELVAANSYRAGSTYYADSVKGRFTISRDNAKNTVYLQMNSLKPEDTAVYYCAKPTYRFYWGDFDYWGQGTQVTVSS	low polyreactivity
QVQLVESGGRLVQAGGSLRLTCAASGFIFKTNGMRWYRKAPGKERELVAAITSRGGSTYYADSVKGRFTISRDNAKNNVYLQMNSLKPEDTAVYYCAARGSRYTDYDYWGQGTHVTVSS	high polyreactivity
